Here are results for 2 molecules from patent US20250145684A1.

In the experiment the target is HLA-B*08:01 (human). In words: UV peptide exchange ELISA.

Where two headings read alike, the source gives them in different places.

As to EPVTKAEM [EPVTKAEM (SEQ ID NO: 97)], under “remark: other sources report otherwise”, the peptide exchange yield lay within 50 to 75%.

As to FAFEKLIQF (modifications not checked) [… (SEQ ID NO: 101)], the peptide exchange yield lay within 50 to 75%.
